Legend:
[1] = tested on: A549 lung cancer cells; test: Cell proliferation assay of A549 cells expressing FoxM1 point mutants; type: cell-based; conditions: A549 cells expressing the mutant
[2] = tested on: THP-1 cells; test: M1 and M2 marker mRNA in THP-1 cells co-cultured with FoxM1-expressing A549 cells; type: cell-based, human; conditions: co-culture 48 h
Excerpt: In the animal tissues, it was confirmed that both PD-L1 protein expression and CD274 mRNA expression were increased in cancer cells expressing FoxM1 (FIG. 5D, 5E). […] From the results described above, we investigated whether FoxM1 phosphorylated point mutant (S25E) affects the polarization of macrophages in the tumor microenvironment. After co-culturing human monocyte THP-1 cells and the cell groups over-expressing FoxM1 point mutants, M1 and M2 markers were examined in THP-1 cells.
Next, an expression suppression system for suppressing FoxM1 expression was established to observe whether the FoxM1 phosphorylated point mutant (S25E) directly affects polarization to M2 macrophages. First, to inhibit the expression of mRNA of FoxM1, a pLKO-puro.1-hFoxM1 plasmid was produced using a pLKO-puro.1 vector to construct shRNAs targeting nucleotide sequences at 709-729 positions in the human FoxM1 mRNA sequence. The following sequences can be used as target sequences for human FoxM1 shRNA production, and oligonucleotides with the following sequences can be used as primers for shRNA production. The gene accession number for human FoxM1 mRNA in PubMed is NM_001243088.2, and it contains 3507 bp. The following primers were used for shRNA production: 5′-ccgg-[…]-ctcgag-[…]-tttttg-3′ (forward primer) and 5′-aattcaaaaa-AGCAAG AGATGGAGGAAAAGG-ctcgag-[…]-3′ (reverse primer). Then, after purifying and concentrating each lentivirus for expression of the produced FoxM1 shRNA, it was constructed by infecting a lung cancer cell line, A549 cells expressing FoxM1, with the virus. The mRNA expression of M2 markers, CD163, CD206, and VEGFA, was examined after co-culturing lung cancer cells (4×10^4 cells/ml) with suppressed FoxM1 expression and THP-1 cells (1.2×10^5 cells/ml) for 48 h. […] When co-culturing with cancer cells expressing the FoxM1 variant S25E, it was confirmed that the M2 markers CD163, CD206, and VEGFA were all increased by 2 folds or more in THP1 cells compared to the control group (Mock_shCtrl) (FIG. 6D).
After co-culturing the FoxM1 WT protein over-expressed cancer cells (4×10^4 cells/ml) and THP-1 cells (1.2×10^5 cells/ml) for 48 h, the mRNA expression of M1 markers INOS and IL12B was not altered, while the mRNA expression of all the M2 markers IL10, CD163, CD206, TGFB1, and VEGFA was increased in the FoxM1 WT (FIG. 13A). Among them, CD206, TGFB1, and VEGFA had been known as markers for M2d-tumor-associated macrophages (M2d-TAM) (JAYASINGAM, Sharmilla Devi, et al., Frontiers in Oncology (2020) 9: 1512.).

[3] = tested on: A549 cells; test: ELISA of TGFB1 and VEGFA proteins in A549 culture medium; type: cell-based; conditions: medium cultured 48 h
Description: In addition, after co-culturing of human monocyte THP-1 cells and cell groups over-expressing FoxM1 point mutations for 48 hours under the conditions where the previous experiments were performed, the mRNA expression levels of M2d-inducing factors IL4, IL6, IL10, and VEGFA in A549 cells expressing FoxM1 S25E were analyzed. […] The amounts of TGFB1 and VEGFA proteins in the medium cultured for 48 h with A549 cells (4×10^4 cells/ml) expressing FoxM1 variants were measured by ELISA.

[4] = tested on: A549 cells; test: IL6, IL1A and CD274 mRNA in A549 cells co-cultured with Jurkat cells; type: cell-based; conditions: co-culture with Jurkat 48 h
[5] = tested on: A549 lung cancer cells expressing the FoxM1 phosphorylated point mutant protein; test: Migration assay of A549 cells over-expressing FoxM1 phosphorylated point mutant treated with peptides; type: cell-based; conditions: doxycycline 3 μg/ml, 48 hours, no peptide
Description: Moreover, to evaluate the effects and efficacy of the three peptides comprising the FoxM1 non-phosphorylation point mutation on the motility of cancer cells, the cell motility was measured by a migration assay (FIG. 8C). Specifically, 5×10^4 cells of A549 lung cancer cells expressing the FoxM1 phosphorylated point mutant protein were seeded into an 8.0 μm, 24-well insert. Culture medium containing 10% serum (FBS) was added to a 24-well plate, and then the insert was placed into the plate. 0.5 ml of RPMI 1640 (10% FBS) containing 3 μg/ml of doxycycline was dispensed into the plate, and each of the three kinds of 5 μM of FoxM1 non-phosphorylated point mutant peptides was simultaneously treated. […] After 5 minutes, the plate was washed with 1×PBS five times, and the stained intensity was measured using the Odyssey infrared imaging system. […]
Specifically, 5×10^4 cells of A549 lung cancer cells expressing the FoxM1 phosphorylated point mutant protein were seeded in an 8.0 μm, 24-well insert, and the inserts were placed in a 24-well plate after medium with 10% fetal bovine serum (FBS) was dispensed on the 24-well plate. […] After 5 minutes, the plate was washed with 1×PBS five times, and the stained intensity was measured using the Odyssey infrared imaging system. […]

[6] = tested on: THP-1 monocytes; test: PD-1 (CD279) mRNA in THP-1 monocytes co-cultured with A549 cells; type: cell-based, human; conditions: co-culture
Description: To examine the mRNA expression levels of PD-1 and PD-L1, which are involved in solid tumor immune evasion, in THP-1 cells and the cells expressing the FoxM1 phosphorylated point mutant, the expression of PD-1 (CD279) mRNA, an immune evasion factor, was measured by qRT-PCR in THP-1 monocytes co-cultured with A549^S25E cells for 48 h (FIG. 7B). It was observed that the expression of mRNA of PD-L1 (CD274), an immune evasion factor, increased by 2 folds in the A549^S25E cells expressing the phosphorylated point mutant compared to the control group.

Molecule	cell proliferation [1]	M2 markers CD163, CD206 and VEGFA in THP1 cells compared to Mock_shCtrl [2]	mRNA expression of M1 markers INOS and IL12B in THP-1 cells [2]	mRNA expression of M2 markers IL10, CD163, Cd206, TGFB1 and VEGFA in THP-1 cells [2]	amount of TGFB1 protein in medium, compared to Mock [3]	amount of VEGFA protein in medium, compared to Mock [3]	expression of IL6, ILIA and CD274 in A549 cells (in words) [4]	mRNA expression of CD274 in A549 cells [4]	mRNA expression of IL6 in A549 cells [4]	mRNA expression of ILIA in A549 cells [4]	stained intensity (migration) of over-expressed group compared to the control group [5]	expression of PD-1 mRNA (CD279) in THP-1 monocytes [6]
S25E: FoxM1 phosphorylated point mutant of the S25 residue, expressed by lentivirus in A549 cells (protein, listed as Homo sapiens) MKTSPRRPLILKRRRLPLPVQNAPEETSEEEPKRSPAQQESNQAEASKEVAESNSCKFPAGIKIINHPTMPNTQVVAIPNNANIHSIITALTAKGKESGSSGPNKFILISCGGAPTQPPGLRPQTQTSYDAKRTEVTLETLGPKPAARDVNLPRPPGALCEQKRETCDGEAAGCTINNSLSNIQWLRKMSSDGLGSRSIKQEMEEKENCHLEQRQVKVEEPSRPSASWQNSVSERPPYSYMAMIQFAINSTERKRMTLKDIYTWIEDHFPYFKHIAKPGWKNSIRHNLSLHDMFVRETSANGKVSFWTIHPSANRYLTLDQVFKQQQKRPNPELRRNMTIKTELPLGARRKMKPLLPRVSSYLVPIQFPVNQSLVLQPSVKVPLPLAASLMSSELARHSKRVRIAPKVLLAEEGIAPLSSAGPGKEEKLLFGEGFSPLLPVQTIKEEEIQPGEEMPHLARPIKVESPPLEEWPSPAPSFKEESSHSWEDSSQSPTPRPKKSYSGLRSPTRCVSEMLVIQHRERRERSRSRRKQHLLPPCVDEPELLFSEGPSTSRWAAELPFPADSSDPASQLSYSQEVGGPFKTPIKETLPISSTPSKSVLPRTPESWRLTPPAKVGGLDFSPVQTSQGASDPLPDPLGLMDLSTTPLQSAPPLESPQRLLSSEPLDLISVPFGNSSPSDIDVPKPGSPEPQVSGLAANRSLTEGLVLDTMNDSLSKILLDISFPGLDEDPLGPDNINWSQFIPELQ	did not significantly increase	≥ 2 folds	did not change	≥ 2 folds	5 folds	4 folds	significantly low expression	5 folds	3.5 folds	4.5 folds	5 folds	–
S25A: FoxM1 protein with Ser25 substituted with alanine, non-phosphorylated point mutant, expressed by lentivirus in A549 cells (protein, left off: a dimerising Fc or GST, FoxM1 protein with Ser25 substituted with alanine, non-phosphorylated point mutant, expressed by lentivirus in A549 cells) MKTSPRRPLILKRRRLPLPVQNAPAETSEEEPKRSPAQQESNQAEASKEVAESNSCKFPAGIKIINHPTMPNTQVVAIPNNANIHSIITALTAKGKESGSSGPNKFILISCGGAPTQPPGLRPQTQTSYDAKRTEVTLETLGPKPAARDVNLPRPPGALCEQKRETCDGEAAGCTINNSLSNIQWLRKMSSDGLGSRSIKQEMEEKENCHLEQRQVKVEEPSRPSASWQNSVSERPPYSYMAMIQFAINSTERKRMTLKDIYTWIEDHFPYFKHIAKPGWKNSIRHNLSLHDMFVRETSANGKVSFWTIHPSANRYLTLDQVFKQQQKRPNPELRRNMTIKTELPLGARRKMKPLLPRVSSYLVPIQFPVNQSLVLQPSVKVPLPLAASLMSSELARHSKRVRIAPKVLLAEEGIAPLSSAGPGKEEKLLFGEGFSPLLPVQTIKEEEIQPGEEMPHLARPIKVESPPLEEWPSPAPSFKEESSHSWEDSSQSPTPRPKKSYSGLRSPTRCVSEMLVIQHRERRERSRSRRKQHLLPPCVDEPELLFSEGPSTSRWAAELPFPADSSDPASQLSYSQEVGGPFKTPIKETLPISSTPSKSVLPRTPESWRLTPPAKVGGLDFSPVQTSQGASDPLPDPLGLMDLSTTPLQSAPPLESPQRLLSSEPLDLISVPFGNSSPSDIDVPKPGSPEPQVSGLAANRSLTEGLVLDTMNDSLSKILLDISFPGLDEDPLGPDNINWSQFIPELQ	–	–	–	–	–	–	–	–	–	–	–	highest
